# Measurements published in article PMC8182806, “Cryo-EM structures of the full-length human KCC2 and KCC3 cation-chloride cotransporters” (Cell Research, 2020).
# How the values were obtained:
# [1] = target: human KCC3 (SLC12A6), K+-Cl- cotransporter 3, full length (human) (UniProt Q9UHW9); assay: cryo-EM structure; single particle cryo-EM of the purified full-length transporter, no inhibitor; KCC2 at 3.2 Å, KCC3 at 3.3 Å overall
# [2] = target: the molecule itself; assay: as above
Molecule,stoichiometry N [1],binding result [2]
"human KCC3 (SLC12A6), K+-Cl- cotransporter 3, full length (from UniProt Q9UHW9-2 1-1099) (natural protein)",2,–
"human KCC2 (SLC12A5), K+-Cl- cotransporter 2, full length (natural protein, UniProt Q9H2X9 1-1139, looked up, K+-Cl- cotransporter KCC2 (SLC12A5), human, full length; Printed residues: Y407, N-terminal loop A65-N83; It says the KCC2 structure is very similar to that of KCC3; source: expressed and purified) MSRRFTVTSLPPAGPARSPDPESRRHSVADPRHLPGEDVKGDGNPKESSPFINSTDTEKGKEYDGKNMALFEEEMDTSPMVSSLLSGLANYTNLPQGSREHEEAENNEGGKKKPVQAPRMGTFMGVYLPCLQNIFGVILFLRLTWVVGIAGIMESFCMVFICCSCTMLTAISMSAIATNGVVPAGGSYYMISRSLGPEFGGAVGLCFYLGTTFAGAMYILGTIEILLAYLFPAMAIFKAEDASGEAAAMLNNMRVYGTCVLTCMATVVFVGVKYVNKFALVFLGCVILSILAIYAGVIKSAFDPPNFPICLLGNRTLSRHGFDVCAKLAWEGNETVTTRLWGLFCSSRFLNATCDEYFTRNNVTEIQGIPGAASGLIKENLWSSYLTKGVIVERSGMTSVGLADGTPIDMDHPYVFSDMTSYFTLLVGIYFPSVTGIMAGSNRSGDLRDAQKSIPTGTILAIATTSAVYISSVVLFGACIEGVVLRDKFGEAVNGNLVVGTLAWPSPWVIVIGSFFSTCGAGLQSLTGAPRLLQAISRDGIVPFLQVFGHGKANGEPTWALLLTACICEIGILIASLDEVAPILSMFFLMCYMFVNLACAVQTLLRTPNWRPRFRYYHWTLSFLGMSLCLALMFICSWYYALVAMLIAGLIYKYIEYRGAEKEWGDGIRGLSLSAARYALLRLEEGPPHTKNWRPQLLVLVRVDQDQNVVHPQLLSLTSQLKAGKGLTIVGSVLEGTFLENHPQAQRAEESIRRLMEAEKVKGFCQVVISSNLRDGVSHLIQSGGLGGLQHNTVLVGWPRNWRQKEDHQTWRNFIELVRETTAGHLALLVTKNVSMFPGNPERFSEGSIDVWWIVHDGGMLMLLPFLLRHHKVWRKCKMRIFTVAQMDDNSIQMKKDLTTFLYHLRITAEVEVVEMHESDISAYTYEKTLVMEQRSQILKQMHLTKNEREREIQSITDESRGSIRRKNPANTRLRLNVPEETAGDSEEKPEEEVQLIHDQSAPSCPSSSPSPGEEPEGEGETDPEKVHLTWTKDKSVAEKNKGPSPVSSEGIKDFFSMKPEWENLNQSNVRRMHTAVRLNEVIVKKSRDAKLVLLNMPGPPRNRNGDENYMEFLEVLTEHLDRVMLVRGGGREVITIYS",–,binds
